We go through one molecule from article PMC4890720 (Methods in molecular biology (Clifton, N.J.), 2012).

This test concerns the target thioredoxin (1–73) (E. coli, UniProt P0AA25 2-74 = thioredoxin). Kind of test: magic angle spinning solid-state NMR.

Chain of thioredoxin (1–73) (P0AA25 2-74): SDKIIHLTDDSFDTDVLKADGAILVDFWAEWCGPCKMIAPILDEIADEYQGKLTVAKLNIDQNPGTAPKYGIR

B1: thioredoxin (74–108) (domain or fragment, E. coli, UniProt P0AA25 75-109, looked up)
chain: GIPTLLLFKNGEVAATKVGALSKGQLKEFLDANLA
As for B1, the binding result is on record as “binds”.
